The labels stand for the following.
B1: Azoarcus group I ribozyme (parent)
chain: GUGCCUUGCGCCGGGAAACCACGCAAGGGAUGGUGUCAAAUUCGGCGAAACCUAAGCGCCCGCCCGGGCGUAUGGCAACGCCGAGCCAAGCUUCGGCGCCUGCGCCGAUGAAGGUGUAGAGACUAGACGGCACCCACCUAAGGCAAACGCUAUGGUGAAGGCAUAGUCCAGGGAGUGGCGAAAGUCACACAAACCGG

This series covers variants of B1. Put plainly: reverse-splicing fitness (ratio to wild type); higher = more active; in vitro selection; Mg2+ level not given. In outline: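 An in vitro group I ribozyme library with randomized positions was T7-transcribed and gel-purified. In triplicate, 10 pmol RNA in EPPS pH 7.5 was reacted with 50 pmoles of a 30-nt RNA substrate for 1 h at 37 °C across several added MgCl2 levels (1–48 mM), then stopped with EDTA. Products were reverse transcribed from a substrate-complementary primer, PCR-amplified and sequenced (HiSeq 4000). Fitness is a variant's read proportion after selection over that before, normalised to wild type.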
C82U A111C A120C A145C C150G C169U U176C: the reverse-splicing fitness worked out at 0.0117.
To A120C A145C C150G U176C belongs 0.174; to C82A A111C A120C U176A, 0.0134.
Regarding C82A A111G A120C A145U C150A C169A U176A, the reverse-splicing fitness was determined as 0.0196.
To C82G A120C A145C C169G U176C belongs 0.0161; to C82U A111C A120U C150A C169G U176G, 0.00237.
To C82G A111G A120U A145C C150G C169G U176A belongs 0.00278; to A111G A145U C150A C169A U176A, 0.0121; to C82G A111G A120G A145G U176C, 0.0204.
To C82G A111C C169U U176G belongs 0.00759.
On to C82G A111U A145G C169A U176G, for which the reverse-splicing fitness came out at 0.00602.
Then C82U A111U A120C A145C C169G U176G, with 0.00439.
Then C82G A120G A145G C150G C169U U176A, with 0.0131; and C82U A120C A145C C150G C169U U176G, with 0.00403.
Consider C82A A111C A120C A145U C150G C169U U176C, for which the reverse-splicing fitness was found to be 0.0101.
To C82U A120G A145G C169A U176A belongs 0.0221.
On to C82A A120G A145U C169U, for which the reverse-splicing fitness stood at 0.0145.
Consider C82G A111G A120U A145C C150A C169G U176C, for which the reverse-splicing fitness is 0.00215.
As for C82U A111U A120C A145C C150G C169A U176G, the reverse-splicing fitness turned out to be 0.00527.
To C82U A111G A120C A145C C150A C169G U176A belongs 0.0198; to A111C A120U A145C C150A C169G U176C, 0.00302.
As to A111G A120G A145G C150G C169U, the reverse-splicing fitness amounted to 0.0343.
As for C82A A111G A120U A145C C150A U176C, the reverse-splicing fitness was determined as 0.00355.
Then A111G A145C C150U C169G U176G, with 0.00586; and C82G A120G C150G C169U U176A, with 0.0113; and C82U A111C A120G C169G U176A, with 0.0161.
As to A120G A145U C150A C169G U176G, the reverse-splicing fitness came out at 0.00649.
Then C82U A111C A120G A145C C150G C169A U176G, with 0.00441; and C82U A111U C150G C169U, with 0.0095; and A111C A145G C150G U176A, with 0.0686.
To C82U A111U A120U A145U C150G C169G belongs 0.00274; to A111G A120U A145U C150A C169A U176C, 0.00238; to C82U A111C A120G A145C C150G C169G U176A, 0.00836.
Take A111G A120C A145U C150U C169G U176A: the reverse-splicing fitness was 0.014.
For C82G A111C A145U C150A C169U U176G, the reverse-splicing fitness amounted to 0.00816.
Then C82A A111C A120C A145U C150U C169A U176A, with 0.0153.
Turning to C82G A111G A145C C150U C169U U176A, the reverse-splicing fitness came to 0.0142.
Turning to C82U A111C A120C A145G, the reverse-splicing fitness was 0.0265.
For A145U C150U C169G U176G, the reverse-splicing fitness is 0.008.
Then C82G A120G A145C C150U U176G, with 0.00485; and A111G A145G C150G C169U, with 0.0298.
To C82A A111C A120G A145G C150G C169G U176A belongs 0.00968; to A111C A120U A145U C169G U176C, 0.00935; to C82G A111U A120U A145U C150A C169G U176A, 0.00335.
As for A120C A145C C169A U176G, the reverse-splicing fitness was found to be 0.00331.
To C82G A120G A145U C169A U176A belongs 0.0122.
Turning to A111G A120G A145C C150U C169U U176A, the reverse-splicing fitness is 0.0353.
To C82G A111G A145U C150G belongs 0.0338; to C82A A111C A120U A145U C169A U176C, 0.00315.
Then C82A A120U A145G C150G, with 0.0192; and A111U A120C C150U C169G U176A, with 0.0138.
To C82U A120U A145U C150A C169G belongs 0.00199; to A111C A120C A145G C169A U176C, 0.0284.
For the variant C82A A111G A120U A145U C150U C169U U176A, the reverse-splicing fitness is 0.00273.
Then A111C A120C A145C C169A U176C, with 0.00756; and A111G A120U A145G C150A C169G U176C, with 0.00584; and C82A A111G A120G C150G, with 0.00686.
With C82U A111U A120G A145G C150U C169A U176A, the reverse-splicing fitness was 0.0135.
To A111C A120G A145C C150G C169A U176C belongs 0.00838.
To C82G A111G A120U A145U C150G C169U U176G belongs 0.00239; to A111G A145U C169G U176C, 0.0429.
In the case of C82A A111C A120C A145G C150U C169U U176A, the reverse-splicing fitness came to 0.0121.
Then C82U A111U A120G A145U C150U C169U, with 0.00788; and A111U C150U C169U U176G, with 0.00705.
Then C82G A111C A120U A145G C150G C169G U176G, with 0.00427.
In the case of C82A A111G A120C A145C C150U U176C, the reverse-splicing fitness turned out to be 0.018.
Then C82U C150A U176G, with 0.0218; and C82A A120G C150G C169U U176A, with 0.0119; and C82G A120U A145U C150A C169G U176C, with 0.00192.
Then C82U A111G A145C C150G C169A U176A, with 0.00801; and C82U A120G C150A C169A, with 0.0118.
Take A120C A145G: the reverse-splicing fitness stood at 0.772.
To C82U A111G A120C C150A C169A U176C belongs 0.0156; to C82A A145G C150U U176G, 0.0838.
Turning to C82G A111U A145C C150G C169U U176C, the reverse-splicing fitness is 0.0102.
Then C82G A111G A120C A145U C150G C169A, with 0.00918; and A111C A120U A145U C169U U176C, with 0.0216; and C82A A111G A120G A145C C150G C169G U176C, with 0.00788.
With C82A A111U A120G A145C C169G U176A, the reverse-splicing fitness is 0.0247.
C82G A145U C169A U176A: the reverse-splicing fitness was determined as 0.00756.
C82A A111C A120U A145G C150A C169U U176A: the reverse-splicing fitness is 0.00642.
For A111G A145U C150G C169A U176A, the reverse-splicing fitness came out at 0.00932.
With C82U A111G A120U C150G C169G U176G, the reverse-splicing fitness worked out at 0.0022.
Regarding C82A A111U A145G C150G C169U U176C, the reverse-splicing fitness turned out to be 0.0142.

(Values after the RNAGym collection of RNA variant scans (doi:10.1093/molbev/msab373).)
